From paper doi:10.1101/2021.11.23.469727 (bioRxiv, 2021)

Legend:
native gel or EMSA = molecular target: the molecule itself; assay: native gel or EMSA
Halo:pdf2K107E = molecular target: T1, Halo:pdf2K107E (Arabidopsis thaliana, UniProt Q93V99 1-743, K107E); assay: EMSA
T1 sequence: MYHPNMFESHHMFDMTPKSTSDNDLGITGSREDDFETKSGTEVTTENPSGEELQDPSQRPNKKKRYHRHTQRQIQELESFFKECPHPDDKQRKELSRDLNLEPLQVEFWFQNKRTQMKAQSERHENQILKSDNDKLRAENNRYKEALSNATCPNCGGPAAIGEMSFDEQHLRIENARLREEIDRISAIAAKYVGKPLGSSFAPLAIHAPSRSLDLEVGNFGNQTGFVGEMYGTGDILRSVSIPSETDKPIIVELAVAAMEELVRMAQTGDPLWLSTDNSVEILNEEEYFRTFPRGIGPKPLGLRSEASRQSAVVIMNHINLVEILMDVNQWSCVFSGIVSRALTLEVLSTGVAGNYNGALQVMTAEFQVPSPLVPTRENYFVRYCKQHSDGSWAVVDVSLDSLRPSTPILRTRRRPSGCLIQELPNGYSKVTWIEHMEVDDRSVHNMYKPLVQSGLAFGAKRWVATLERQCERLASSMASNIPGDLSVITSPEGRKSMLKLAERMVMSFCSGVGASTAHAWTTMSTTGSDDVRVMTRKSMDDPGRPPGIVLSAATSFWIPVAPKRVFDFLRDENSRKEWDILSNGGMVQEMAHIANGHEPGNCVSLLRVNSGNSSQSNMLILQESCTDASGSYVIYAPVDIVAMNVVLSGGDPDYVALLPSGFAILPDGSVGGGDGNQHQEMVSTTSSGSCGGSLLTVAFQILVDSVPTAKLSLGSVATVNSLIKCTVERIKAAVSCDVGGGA

Halo:ATML1 = molecular target: T2, Halo:ATML1 (Arabidopsis thaliana, UniProt Q8RWU4 1-762); assay: EMSA
T2 sequence: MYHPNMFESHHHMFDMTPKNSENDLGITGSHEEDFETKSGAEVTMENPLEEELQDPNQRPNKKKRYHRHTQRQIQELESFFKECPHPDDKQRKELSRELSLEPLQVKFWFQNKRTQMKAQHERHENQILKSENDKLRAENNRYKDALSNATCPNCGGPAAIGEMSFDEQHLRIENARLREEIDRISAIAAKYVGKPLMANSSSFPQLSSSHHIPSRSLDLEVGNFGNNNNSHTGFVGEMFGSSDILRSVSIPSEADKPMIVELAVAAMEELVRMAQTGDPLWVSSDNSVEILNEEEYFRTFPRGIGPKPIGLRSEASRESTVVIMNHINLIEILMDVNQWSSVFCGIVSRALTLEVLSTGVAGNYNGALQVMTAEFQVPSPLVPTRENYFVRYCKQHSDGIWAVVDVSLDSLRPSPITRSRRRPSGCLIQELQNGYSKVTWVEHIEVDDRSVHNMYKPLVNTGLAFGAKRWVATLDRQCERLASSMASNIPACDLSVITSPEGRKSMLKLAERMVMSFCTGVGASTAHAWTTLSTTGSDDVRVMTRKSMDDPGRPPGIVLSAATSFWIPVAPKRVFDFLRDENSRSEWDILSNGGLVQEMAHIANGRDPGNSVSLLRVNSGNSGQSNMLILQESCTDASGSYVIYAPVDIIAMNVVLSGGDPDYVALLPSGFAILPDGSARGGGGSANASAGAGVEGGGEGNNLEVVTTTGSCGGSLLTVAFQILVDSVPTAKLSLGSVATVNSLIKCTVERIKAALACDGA

Halo:PDF2 = molecular target: T3, Halo:PDF2 (Arabidopsis thaliana, UniProt Q93V99 1-743); assay: EMSA
T3 sequence: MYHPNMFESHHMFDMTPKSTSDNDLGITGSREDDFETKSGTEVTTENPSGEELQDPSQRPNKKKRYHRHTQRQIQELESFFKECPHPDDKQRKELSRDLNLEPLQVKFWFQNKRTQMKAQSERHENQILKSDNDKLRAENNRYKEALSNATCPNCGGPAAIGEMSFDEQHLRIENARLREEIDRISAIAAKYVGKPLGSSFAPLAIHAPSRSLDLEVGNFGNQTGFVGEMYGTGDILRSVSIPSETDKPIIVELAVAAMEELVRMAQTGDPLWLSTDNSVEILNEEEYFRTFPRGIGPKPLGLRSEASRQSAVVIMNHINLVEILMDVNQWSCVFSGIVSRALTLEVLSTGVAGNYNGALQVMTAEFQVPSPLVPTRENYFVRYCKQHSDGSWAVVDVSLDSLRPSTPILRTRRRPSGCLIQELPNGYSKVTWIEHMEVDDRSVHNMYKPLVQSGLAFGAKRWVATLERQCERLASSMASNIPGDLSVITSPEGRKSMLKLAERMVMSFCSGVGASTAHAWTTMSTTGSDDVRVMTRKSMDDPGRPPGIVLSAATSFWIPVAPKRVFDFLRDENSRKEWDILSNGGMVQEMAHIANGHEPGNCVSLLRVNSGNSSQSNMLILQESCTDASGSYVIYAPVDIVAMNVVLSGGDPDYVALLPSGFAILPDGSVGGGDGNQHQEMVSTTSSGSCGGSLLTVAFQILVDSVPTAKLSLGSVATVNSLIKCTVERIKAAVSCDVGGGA

Halo:atml1ΔST = molecular target: T4, Halo:atml1ΔST (Arabidopsis thaliana, UniProt Q8RWU4 1-253+483-762, internal_change); assay: EMSA
T4 sequence: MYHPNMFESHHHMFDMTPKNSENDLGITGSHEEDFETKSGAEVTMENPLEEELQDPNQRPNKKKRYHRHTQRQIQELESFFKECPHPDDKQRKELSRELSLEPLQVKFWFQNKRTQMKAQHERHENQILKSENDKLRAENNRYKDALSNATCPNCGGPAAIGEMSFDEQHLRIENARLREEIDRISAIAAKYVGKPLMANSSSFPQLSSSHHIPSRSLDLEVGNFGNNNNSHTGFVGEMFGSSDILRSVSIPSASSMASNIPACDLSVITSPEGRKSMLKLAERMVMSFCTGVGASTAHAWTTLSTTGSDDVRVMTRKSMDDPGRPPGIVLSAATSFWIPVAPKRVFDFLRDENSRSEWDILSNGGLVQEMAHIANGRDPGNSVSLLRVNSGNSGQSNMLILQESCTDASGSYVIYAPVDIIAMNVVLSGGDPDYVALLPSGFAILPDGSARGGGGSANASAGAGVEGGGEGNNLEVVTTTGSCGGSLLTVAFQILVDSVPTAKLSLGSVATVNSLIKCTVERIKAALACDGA

Halo:pdf2ΔST = molecular target: T5, Halo:pdf2ΔST (Arabidopsis thaliana, UniProt Q93V99 1-244+475-743, internal_change); assay: EMSA
T5 sequence: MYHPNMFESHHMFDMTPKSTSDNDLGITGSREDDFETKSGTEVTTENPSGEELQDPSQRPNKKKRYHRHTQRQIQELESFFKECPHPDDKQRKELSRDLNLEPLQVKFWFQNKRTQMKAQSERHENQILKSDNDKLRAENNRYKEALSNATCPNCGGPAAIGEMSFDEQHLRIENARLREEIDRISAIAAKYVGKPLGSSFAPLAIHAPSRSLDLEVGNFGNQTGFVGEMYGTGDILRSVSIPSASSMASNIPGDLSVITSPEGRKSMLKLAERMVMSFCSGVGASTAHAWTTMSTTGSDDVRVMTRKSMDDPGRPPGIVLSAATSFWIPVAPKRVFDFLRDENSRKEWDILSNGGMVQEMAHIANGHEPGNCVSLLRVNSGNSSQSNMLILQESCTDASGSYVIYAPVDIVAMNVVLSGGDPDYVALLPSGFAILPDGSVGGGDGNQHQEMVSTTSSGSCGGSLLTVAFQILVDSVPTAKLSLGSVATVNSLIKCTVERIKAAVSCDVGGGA

B1: Halo:PDF2 (PROTODERMAL FACTOR2, full length, Halo-tagged) (natural protein, Arabidopsis thaliana, UniProt Q93V99 1-743, looked up)
chain: MYHPNMFESHHMFDMTPKSTSDNDLGITGSREDDFETKSGTEVTTENPSGEELQDPSQRPNKKKRYHRHTQRQIQELESFFKECPHPDDKQRKELSRDLNLEPLQVKFWFQNKRTQMKAQSERHENQILKSDNDKLRAENNRYKEALSNATCPNCGGPAAIGEMSFDEQHLRIENARLREEIDRISAIAAKYVGKPLGSSFAPLAIHAPSRSLDLEVGNFGNQTGFVGEMYGTGDILRSVSIPSETDKPIIVELAVAAMEELVRMAQTGDPLWLSTDNSVEILNEEEYFRTFPRGIGPKPLGLRSEASRQSAVVIMNHINLVEILMDVNQWSCVFSGIVSRALTLEVLSTGVAGNYNGALQVMTAEFQVPSPLVPTRENYFVRYCKQHSDGSWAVVDVSLDSLRPSTPILRTRRRPSGCLIQELPNGYSKVTWIEHMEVDDRSVHNMYKPLVQSGLAFGAKRWVATLERQCERLASSMASNIPGDLSVITSPEGRKSMLKLAERMVMSFCSGVGASTAHAWTTMSTTGSDDVRVMTRKSMDDPGRPPGIVLSAATSFWIPVAPKRVFDFLRDENSRKEWDILSNGGMVQEMAHIANGHEPGNCVSLLRVNSGNSSQSNMLILQESCTDASGSYVIYAPVDIVAMNVVLSGGDPDYVALLPSGFAILPDGSVGGGDGNQHQEMVSTTSSGSCGGSLLTVAFQILVDSVPTAKLSLGSVATVNSLIKCTVERIKAAVSCDVGGGA
stoichiometry N (native gel or EMSA): 2

B2: ATML1 (Arabidopsis thaliana MERISTEM LAYER1), wild type, protein of the EMSA (natural protein, UniProt Q8RWU4 1-762, looked up)
chain: MYHPNMFESHHHMFDMTPKNSENDLGITGSHEEDFETKSGAEVTMENPLEEELQDPNQRPNKKKRYHRHTQRQIQELESFFKECPHPDDKQRKELSRELSLEPLQVKFWFQNKRTQMKAQHERHENQILKSENDKLRAENNRYKDALSNATCPNCGGPAAIGEMSFDEQHLRIENARLREEIDRISAIAAKYVGKPLMANSSSFPQLSSSHHIPSRSLDLEVGNFGNNNNSHTGFVGEMFGSSDILRSVSIPSEADKPMIVELAVAAMEELVRMAQTGDPLWVSSDNSVEILNEEEYFRTFPRGIGPKPIGLRSEASRESTVVIMNHINLIEILMDVNQWSSVFCGIVSRALTLEVLSTGVAGNYNGALQVMTAEFQVPSPLVPTRENYFVRYCKQHSDGIWAVVDVSLDSLRPSPITRSRRRPSGCLIQELQNGYSKVTWVEHIEVDDRSVHNMYKPLVNTGLAFGAKRWVATLDRQCERLASSMASNIPACDLSVITSPEGRKSMLKLAERMVMSFCTGVGASTAHAWTTLSTTGSDDVRVMTRKSMDDPGRPPGIVLSAATSFWIPVAPKRVFDFLRDENSRSEWDILSNGGLVQEMAHIANGRDPGNSVSLLRVNSGNSGQSNMLILQESCTDASGSYVIYAPVDIIAMNVVLSGGDPDYVALLPSGFAILPDGSARGGGGSANASAGAGVEGGGEGNNLEVVTTTGSCGGSLLTVAFQILVDSVPTAKLSLGSVATVNSLIKCTVERIKAALACDGA
stoichiometry N (native gel or EMSA): 2

B3: L1-box probe (3x L1 motif) (dsDNA)
DNA 1: GGGTACATTTATACATTTATACATTTAAAT
DNA 2: ATTTAAATGTATAAATGTATAAATGTACCC
binding result (Halo:pdf2K107E): no binding
binding result (Halo:ATML1): binds
binding result (Halo:PDF2): binds
binding result (Halo:atml1ΔST): binds
binding result (Halo:pdf2ΔST): binds
